Test results taken from US12091446 (NATIONAL TECHNOLOGY AND ENGINEERING SOLUTIONS OF SANDIA, dated 2024).
Like-named read-outs stand apart in the source and are kept apart here.

Assays:
[1] = target: T1, SARS-COV-2 Wuhan (WT) RBD (SARS-COV-2, UniProt P0DTC2 319-541)
[2] = target: T2, SARS-COV-2 Delta RBD (SARS-COV-2, UniProt P0DTC2 319-541)
[3] = target: T3, SARS-COV-2 spike, Beta variant (B.1.351) (SARS-COV-2, UniProt P0DTC2 14-1273); experiment: cell-based or functional assay
[4] = target: T4, SARS-COV-2 spike, Gamma variant (P.1) (SARS-COV-2, UniProt P0DTC2 14-1273); experiment: cell-based or functional assay
[5] = target: T5, SARS-COV-2 spike, Delta variant (B.1.617.2) (SARS-COV-2, UniProt P0DTC2 14-1273); experiment: cell-based or functional assay
[6] = target: T6, SARS-COV-2 spike, Lambda variant (C.37) (SARS-COV-2, UniProt P0DTC2 14-1273); experiment: cell-based or functional assay
[7] = target: T7, SARS-COV-2 spike, Mu variant (B.1.621) (SARS-COV-2, UniProt P0DTC2 14-1273); experiment: cell-based or functional assay
[8] = target: T3, SARS-COV-2 spike, Beta variant (B.1.351); experiment: cell-based or functional assay; remark: listed apart in the source
[9] = target: T4, SARS-COV-2 spike, Gamma variant (P.1); experiment: cell-based or functional assay; remark: listed apart in the source
[10] = target: T5, SARS-COV-2 spike, Delta variant …; experiment: cell-based or functional assay; remark: listed apart in the source
[11] = target: T6, SARS-COV-2 spike, Lambda variant (C.37); experiment: cell-based or functional assay; remark: listed apart in the source
[12] = target: T7, SARS-COV-2 spike, Mu variant (B.1.621); experiment: cell-based or functional assay; remark: listed apart in the source
[13] = target: T1, SARS-COV-2 Wuhan (WT) RBD; remark: listed apart in the source
[14] = target: T8, SARS-COV-2 spike, Omicron variant (BA.1) (SARS-COV-2, UniProt P0DTC2 14-1273); experiment: cell-based or functional assay
[15] = target: T2, SARS-COV-2 Delta RBD; experiment: ELISA titration (A450 against Nb-hFc ug/mL) on SARS-CoV-2 Delta RBD
[16] = target: T1, SARS-COV-2 Wuhan (WT) RBD; remark: listed apart in the source
[17] = target: T8, SARS-COV-2 spike, Omicron variant (BA.1); experiment: cell-based or functional assay; remark: listed apart in the source

B1: KP1C9 Nb-huFc (Fc fusion)
chain: EVQLQASGGGFVQPGGSLRLSCAASGRTFDAYSMGWFRQAPGKEREFVSAISSWSDDWTAYADSVKGRFTISRDNSKNTVYLQMNSLRAEDTATYYCALQNTKEDRLYWGQGTQVTVSS
Kd [1]: 0.119 nM
Kd [2]: 25.5 nM
EC50, neutralization of spike pseudotyped virus [3]: 203 nM
EC50, neutralization of spike pseudotyped virus [4]: 80.2 nM
EC50, neutralization of spike pseudotyped virus [5]: 1.22 nM
EC50, neutralization of spike pseudotyped virus [6]: 0.13 nM
EC50, neutralization of spike pseudotyped virus [7]: 2.02 nM

B2: AP1C3 Nb-huFc (Fc fusion)
chain: EVQLQASGGGFVQPGGSLRLSCAASGRTYRGYSMGWFRQAPGKEREFVSAISSWSDDWTAYADSVKGRFTISRDNSKNTVYLQMNSLRAEDTATYYCAWQYIDEIQYYWGQGTQVTVSS
Kd [1]: 0.133 nM
Kd [2]: 33.3 nM
EC50, neutralization of spike pseudotyped virus [8]: 338 nM
EC50, neutralization of spike pseudotyped virus [9]: 1.07 nM
EC50, neutralization of spike pseudotyped virus [10]: 191 nM
EC50, neutralization of spike pseudotyped virus [11]: 0.02 nM
EC50, neutralization of spike pseudotyped virus [12]: 0.83 nM

B3: BP2A6 Nb-huFc (Fc fusion)
chain: EVQLQASGGGFVQPGGSLRLSCAASGQTFSHYIMGWFRQAPGKEREFVSAISAGQGHATYYADSVKGRFTISRDNSKNTVYLQMNSLRAEDTATYYCAKYQDTIAPLYWGQGTQVTVSS
Kd [1]: 0.0766 nM
Kd [13]: 149 nM
EC50, neutralization of spike pseudotyped virus [8]: 0.34 nM
EC50, neutralization of spike pseudotyped virus [9]: 0.63 nM
EC50, neutralization of spike pseudotyped virus [10]: 875 nM
EC50, neutralization of spike pseudotyped virus [11]: 883 nM
EC50, neutralization of spike pseudotyped virus [12]: 2.53 nM
EC50, neutralization of spike pseudotyped virus [14]: 43.3 nM
binding result [15]: no binding (tested: 10 ug/mL)

B4: BP1B1 Nb-huFc (Fc fusion)
chain: EVQLQASGGGFVQPGGSLRLSCAASGRTFSGYIMGWFRQAPGKEREFVSAISQGDSYASYYADSVKGRFTISRDNSKNTVYLQMNSLRAEDTATYYCALYDINTVPYYWGQGTQVTVSS
Kd [1]: 0.266 nM
Kd [16]: 371 nM
EC50, neutralization of spike pseudotyped virus [3]: 3.5 nM
EC50, neutralization of spike pseudotyped virus [4]: 3.68 nM
EC50, neutralization of spike pseudotyped virus [7]: 6.97 nM
EC50, neutralization of spike pseudotyped virus [17]: 403 nM
binding result [15]: no binding (tested: 10 ug/mL)

B5: BP2H9 Nb-huFc (Fc fusion)
chain: EVQLQASGGGFVQPGGSLRLSCAASGQTFTHVPMGWFRQAPGKEREFVSAISDTSGFETYYADSVKGRFTISRDNSKNTVYLQMNSLRAEDTATYYCAWAYDQFNWNYWGQGTQVTVSS
EC50, neutralization of spike pseudotyped virus [3]: 0.21 nM
EC50, neutralization of spike pseudotyped virus [4]: 0.26 nM
EC50, neutralization of spike pseudotyped virus [7]: 922 nM

B6: AP1B6 Nb-huFc (Fc fusion)
chain: EVQLQASGGGFVQPGGSLRLSCAASGSAFQIYAMGWFRQAPGKEREFVSAISSTDSETDHYADSVKGRFTISRDNSKNTVYLQMNSLRAEDTATYYCAVNGFDYAHSKAGPQVYWGQGTQVTVSS
Kd [1]: 0.585 nM
EC50, neutralization of spike pseudotyped virus [8]: 0.12 nM
EC50, neutralization of spike pseudotyped virus [9]: 0.26 nM
EC50, neutralization of spike pseudotyped virus [10]: 586 nM
EC50, neutralization of spike pseudotyped virus [11]: 414 nM
EC50, neutralization of spike pseudotyped virus [12]: 1.54 nM
binding result [15]: no binding (tested: 10 ug/mL)

B7: KP1B5 Nb-huFc (Fc fusion)
chain: EVQLQASGGGFVQPGGSLRLSCAASGFTFDWSAMGWFRQAPGKEREFVSAISSSTSESTTYADSVKGRFTISRDNSKNTVYLQMNSLRAEDTATYYCATYYGGKTVEQDFYWGQGTQVTVSS
EC50, neutralization of spike pseudotyped virus [3]: 482 nM
EC50, neutralization of spike pseudotyped virus [4]: 214 nM
EC50, neutralization of spike pseudotyped virus [5]: 324 nM
EC50, neutralization of spike pseudotyped virus [6]: 472 nM
EC50, neutralization of spike pseudotyped virus [7]: 367 nM

B8: AP1D4 Nb-huFc (Fc fusion)
chain: EVQLQASGGGFVQPGGSLRLSCAASGHTFDAHRMGWFRQAPGKEREFVSAISSWGQSSTYYADSVKGRFTISRDNSKNTVYLQMNSLRAEDTATYYCAQTDEGNQYVYWGQGTQVTVSS
Kd [1]: 1.09 nM
EC50, neutralization of spike pseudotyped virus [8]: 627 nM
EC50, neutralization of spike pseudotyped virus [9]: 13.5 nM
EC50, neutralization of spike pseudotyped virus [10]: 758 nM
EC50, neutralization of spike pseudotyped virus [11]: 490 nM
EC50, neutralization of spike pseudotyped virus [12]: 1.92 nM

B9: AP1A5 Nb-huFc (Fc fusion)
chain: EVQLQASGGGFVQPGGSLRLSCAASGSTASHYTMGWFRQAPGKEREFVSAISSGRDHAKQYADSVKGRFTISRDNSKNTVYLQMNSLRAEDTATYYCAYEEINATQKDTLYWGQGTQVTVSS
Kd [1]: 1.28 nM
EC50, neutralization of spike pseudotyped virus [8]: 198 nM
EC50, neutralization of spike pseudotyped virus [9]: 533 nM
EC50, neutralization of spike pseudotyped virus [10]: 73.3 nM
EC50, neutralization of spike pseudotyped virus [11]: 79.1 nM
EC50, neutralization of spike pseudotyped virus [12]: 7.18 nM
binding result [15]: no binding (tested: 10 ug/mL)

B10: BP1A10 Nb-huFc (Fc fusion)
chain: EVQLQASGGGFVQPGGSLRLSCAASGQPSDRYIMGWFRQAPGKEREFVSAISQGAANKTAYADSVKGRFTISRDNSKNTVYLQMNSLRAEDTATYYCATHFNWQNYSYWGQGTQVTVSS
Kd [1]: 0.548 nM
EC50, neutralization of spike pseudotyped virus [8]: 4.32 nM
EC50, neutralization of spike pseudotyped virus [9]: 3.95 nM
EC50, neutralization of spike pseudotyped virus [12]: 26.1 nM

B11: BP2A3 Nb-huFc (Fc fusion)
chain: EVQLQASGGGFVQPGGSLRLSCAASGRTFSAYSMGWFRQAPGKEREFVSAISAGDGAASYYADSVKGRFTISRDNSKNTVYLQMNSLRAEDTATYYCAHYYTTSATLDYAYWGQGTQVTVSS
Kd [1]: 0.315 nM
EC50, neutralization of spike pseudotyped virus [3]: 4.44 nM
EC50, neutralization of spike pseudotyped virus [4]: 3.73 nM
EC50, neutralization of spike pseudotyped virus [7]: 466 nM
binding result [15]: no binding (tested: 10 ug/mL)

B12: DP4F2 Nb-huFc (Fc fusion)
chain: EVQLQASGGGFVQPGGSLRLSCAASGTTYSERVMGWFRQAPGKEREFVSAISSGQSDQTYYYADSVKGRFTISRDNSKNTVYLQMNSLRAEDTATYYCAPFAGDANLPREWYWGQGTQVTVSSA
Kd [1]: 9.51 nM
Kd [2]: 1.91 nM
EC50, neutralization of spike pseudotyped virus [5]: 26.8 nM
EC50, neutralization of spike pseudotyped virus [7]: 25.1 nM

B13: KP2C6 Nb-huFc (Fc fusion)
chain: EVQLQASGGGFVQPGGSLRLSCAASGRTFTSFHMGWFRQAPGKEREFVSAISSGDDGTQYYADSVKGRFTISRDNSKNTVYLQMNSLRAEDTATYYCAAYTTTTVPQYWGQGTQVTVSS
Kd [1]: 4.46 nM
Kd [2]: 62.6 nM
EC50, neutralization of spike pseudotyped virus [3]: 411 nM
EC50, neutralization of spike pseudotyped virus [4]: 408 nM
EC50, neutralization of spike pseudotyped virus [5]: 18.3 nM
EC50, neutralization of spike pseudotyped virus [6]: 612 nM
EC50, neutralization of spike pseudotyped virus [7]: 305 nM
